Laboratory results as given in paper PMC2828873 (2009).

Target: Stargazin-derived probe 12 (Rattus norvegicus, UniProt Q71RJ2, N-acetyl, X=Dab(4-DMAP), NRR added)
Test: fluorescence titration

B1: Shank3 PDZ (protein)
chain: DDKVAILQKRDHEGFGFVLRGAKAETPIEEFTPTPAFPALQYLESVDVEGVAWKAGLRTGDFLIEVNGVNVVKVGHKQVVGLIRQGGNRLVMKVVSVTRKP
Kd: 10 µM
